This note sets out measurements from article PMC10392983 (2023).

The target in one assay is p110γ-p84 complex (human | mouse, UniProt P48736 1-1102; Q3U6Q4 1-756). Briefly: BLI.
For another assay, the target named is p110γ-p101 complex (human | Sus scrofa (porcine), UniProt P48736 1-1102; O02696 1-877). Description: BLI.
Chain of p110γ-p101 complex (P48736 whole entry, chain 1 of 2): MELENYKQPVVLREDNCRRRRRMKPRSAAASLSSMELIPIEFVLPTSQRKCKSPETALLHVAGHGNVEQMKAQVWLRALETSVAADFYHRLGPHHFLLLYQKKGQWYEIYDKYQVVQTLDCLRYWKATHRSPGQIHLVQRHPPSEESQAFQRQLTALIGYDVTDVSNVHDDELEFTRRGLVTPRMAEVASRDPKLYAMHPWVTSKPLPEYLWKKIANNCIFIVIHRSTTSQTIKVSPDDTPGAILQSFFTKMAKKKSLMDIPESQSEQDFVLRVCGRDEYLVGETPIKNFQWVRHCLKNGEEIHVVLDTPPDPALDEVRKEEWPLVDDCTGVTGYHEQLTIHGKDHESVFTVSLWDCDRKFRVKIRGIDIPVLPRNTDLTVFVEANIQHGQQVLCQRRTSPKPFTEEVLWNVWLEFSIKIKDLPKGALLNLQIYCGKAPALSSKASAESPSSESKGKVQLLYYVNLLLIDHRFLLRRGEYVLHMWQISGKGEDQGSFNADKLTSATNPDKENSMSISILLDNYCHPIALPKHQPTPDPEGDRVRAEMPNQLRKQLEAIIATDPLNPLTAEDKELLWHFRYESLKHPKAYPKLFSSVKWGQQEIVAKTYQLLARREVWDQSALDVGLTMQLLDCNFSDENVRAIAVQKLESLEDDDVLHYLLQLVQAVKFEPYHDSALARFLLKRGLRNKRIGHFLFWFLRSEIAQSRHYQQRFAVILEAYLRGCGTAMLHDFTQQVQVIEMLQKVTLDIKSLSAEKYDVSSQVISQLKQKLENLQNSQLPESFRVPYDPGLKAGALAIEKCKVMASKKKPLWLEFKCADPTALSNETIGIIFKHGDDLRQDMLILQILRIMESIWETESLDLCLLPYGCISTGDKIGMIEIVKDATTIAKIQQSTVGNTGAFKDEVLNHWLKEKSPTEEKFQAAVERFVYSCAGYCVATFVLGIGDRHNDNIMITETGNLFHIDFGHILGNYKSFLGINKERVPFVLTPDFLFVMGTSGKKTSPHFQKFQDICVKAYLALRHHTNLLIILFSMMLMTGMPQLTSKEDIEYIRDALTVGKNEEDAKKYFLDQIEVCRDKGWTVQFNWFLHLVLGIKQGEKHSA
Chain of p110γ-p101 complex (O02696 whole entry, chain 2 of 2): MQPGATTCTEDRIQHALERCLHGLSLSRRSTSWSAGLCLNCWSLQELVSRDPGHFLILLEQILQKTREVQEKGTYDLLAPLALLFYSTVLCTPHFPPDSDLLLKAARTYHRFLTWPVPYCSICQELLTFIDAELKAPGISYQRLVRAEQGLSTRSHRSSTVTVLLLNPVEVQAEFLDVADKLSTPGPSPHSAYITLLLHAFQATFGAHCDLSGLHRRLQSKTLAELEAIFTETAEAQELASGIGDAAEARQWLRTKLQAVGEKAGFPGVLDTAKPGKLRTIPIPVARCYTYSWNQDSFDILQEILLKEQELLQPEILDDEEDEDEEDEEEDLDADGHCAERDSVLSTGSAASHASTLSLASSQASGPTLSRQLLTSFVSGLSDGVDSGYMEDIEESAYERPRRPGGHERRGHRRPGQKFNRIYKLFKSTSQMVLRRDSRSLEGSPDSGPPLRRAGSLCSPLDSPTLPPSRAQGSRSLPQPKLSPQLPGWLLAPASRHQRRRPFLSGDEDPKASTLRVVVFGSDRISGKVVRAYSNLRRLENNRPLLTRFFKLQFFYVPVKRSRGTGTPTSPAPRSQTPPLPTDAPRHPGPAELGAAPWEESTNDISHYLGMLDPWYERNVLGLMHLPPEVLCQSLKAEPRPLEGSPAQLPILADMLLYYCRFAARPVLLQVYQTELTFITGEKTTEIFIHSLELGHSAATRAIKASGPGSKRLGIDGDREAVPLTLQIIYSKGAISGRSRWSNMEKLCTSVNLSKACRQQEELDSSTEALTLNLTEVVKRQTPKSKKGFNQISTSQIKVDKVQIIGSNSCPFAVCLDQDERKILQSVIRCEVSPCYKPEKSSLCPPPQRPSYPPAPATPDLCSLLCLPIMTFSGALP

Chain of p110γ-p84 complex (P48736 whole entry, chain 1 of 2): as the sequence (P48736 whole entry, chain 1 of 2) above
Chain of p110γ-p84 complex (Q3U6Q4 whole entry, chain 2 of 2): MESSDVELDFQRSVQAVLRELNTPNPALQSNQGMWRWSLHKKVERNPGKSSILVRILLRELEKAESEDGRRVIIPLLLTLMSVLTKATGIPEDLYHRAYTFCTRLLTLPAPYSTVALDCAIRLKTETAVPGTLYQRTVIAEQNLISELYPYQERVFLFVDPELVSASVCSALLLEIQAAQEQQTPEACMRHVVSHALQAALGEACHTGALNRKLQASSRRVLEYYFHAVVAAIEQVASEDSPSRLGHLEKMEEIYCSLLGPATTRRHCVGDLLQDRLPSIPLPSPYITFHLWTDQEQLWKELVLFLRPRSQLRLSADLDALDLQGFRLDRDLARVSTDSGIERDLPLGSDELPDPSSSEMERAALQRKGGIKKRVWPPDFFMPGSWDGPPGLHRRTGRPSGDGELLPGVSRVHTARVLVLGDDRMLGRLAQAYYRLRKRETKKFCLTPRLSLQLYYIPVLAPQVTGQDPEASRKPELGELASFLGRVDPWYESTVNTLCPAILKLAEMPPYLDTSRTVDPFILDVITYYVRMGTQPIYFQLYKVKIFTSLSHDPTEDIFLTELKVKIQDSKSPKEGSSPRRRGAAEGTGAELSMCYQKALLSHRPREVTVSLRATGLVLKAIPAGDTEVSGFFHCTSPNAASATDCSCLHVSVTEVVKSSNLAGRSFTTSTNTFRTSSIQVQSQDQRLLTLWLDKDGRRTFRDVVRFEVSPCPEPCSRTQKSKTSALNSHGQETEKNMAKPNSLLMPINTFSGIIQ

B1: Nanobody NB7-PIK3CG (VHH)
VHH: QVQLVESGGGLVQPGGSLRLSCAASGSIFSINAMGWYRQAPGKQRELVAHITSGGSTNYADSVKGRFTISRDNAKNTVYLQMNSLKPEDTAVYYCNEAGDPFLGSTWNGPPAFGSWGQGTQVTVSS
B1: the Kd came out at 3 nM with p110γ-p84 complex and 3.1 nM with p110γ-p101 complex.
